Measurements as given in patent publication US20140341809A1.

Assays:
[1] = molecular target: …/HLA-A2; assay: SPR, Biacore 3000, 25 C (FIG. 2B shows a kinetic titration for this pair)
[2] = molecular target: …/HLA-A2; assay: SPR, Biacore 3000, 25 C
[3] = molecular target: …/HLA-A2; assay: SPR, against wild-type DMF5

Kd [1] [nM] | Kd [2] [nM] | ΔΔG [3] [kcal/mol] | Substance
24 | 1700 | – | high-affinity DMF5 variant αD27Y/βL95W (TCR)
– | 680 | -1.6 | DMF5 TCR αD27W mutant
